The results in this text go back to doi:10.1101/2022.08.30.505785 (bioRxiv, 2022).

The series deals with the molecule itself. The experiment in a line: SAXS.

B1: Oxalyl-CoA synthetase from Saccharomyces cerevisiae, K352D variant (enzyme, S. cerevisiae, UniProt P38137 1-543, looked up)
chain: MTSAATVTASFNDTFSVSDNVAVIVPETDTQVTYRDLSHMVGHFQTMFTNPNSPLYGAVFRQDTVAISMRNGLEFIVAFLGATMDAKIGAPLNPNYKEKEFNFYLNDLKSKAICVPKGTTKLQSSEILKSASTFGCFIVELAFDATRFRVEYDIYSPEDNYKRVIYRSLNNAKFVNTNPVKFPGFARSSDVALILHTSGTTSTPKTVPLLHLNIVRSTLNIANTYKLTPLDRSYVVMPLFHVHGLIGVLLSTFRTQGSVVVPDGFHPKLFWDQFVKYNCNWFSCVPTISMIMLNMPKPNPFPHIRFIRSCSSALAPATFHKLEKEFNAPVLEAYAMTEASHQMTSNNLPPGDRKPGTVGQPQGVTVVILDDNDNVLPPGKVGEVSIRGENVTLGYANNPKANKENFTKRENYFRTGDQGYFDPEGFLVLTGRIKELINRGGEKISPIELDGIMLSHPKIDEAVAFGVPDDMYGQVVQAAIVLKKGEKMTYEELVNFLKKHLASFKIPTKVYFVDKLPKTATGKIQRRVIAETFAKSSRNKSKL
In the case of B1, the stoichiometry N (in general, the number of molecules, sites or subunits per partner or assembly) was found to be 2.
